Laboratory results as given in article PMC4660213, “Identification and characterization of multiple rubisco activases in chemoautotrophic bacteria” (Nature Communications, 2015).

B1: Acidithiobacillus ferrooxidans CbbQ2 (natural protein, UniProt B7J5E4 1-272, looked up)
chain: MTATDSSILNQYLVGKEPFYQPQHDEVALFEAAYRKRLPVMVKGPTGCGKSRFVEFMAWRLGKPLVTVACNEDMTAADLVGRWLLDKDGTRWQDGPLTVAARYGAICYLDEIVEARQDTTVVIHPLTDHRRTLPLDKKGELIRAHPDFQLVISYNPGYQSLMKDLKQSTKQRFTGFEFDYPNAELEAGILVQETGVAPSIAAQLVTVAATARRLKGHGLDEGISTRLLVYAAMLMDDGVAPRAACRMALVQPITDDADIRATLEHAIDMTFA
notes: MoxR-type AAA+ protein CbbQ2 of Acidithiobacillus ferrooxidans ATCC 23270, locus AFE_2156; native N terminus after cleavage of His6-ubiquitin; also called AfQ2; AfCbbQ2; not shown: His6, N-terminal, cleaved; ubiquitin, N-terminal, cleaved
B2: Acidithiobacillus ferrooxidans CbbQ1 (natural protein, UniProt B7JA26 1-267, looked up)
chain: MNDQLTEYRIKKAPYYRATGDETELYEAAYSVRMPMMLKGPTGCGKTRFVEYMAYKLGKPLITVACNEDMTASDLVGRFLLDPQGTRWQDGPLTLAARLGAICYLDEVVEARQDTTVVIHPLTDNRRVLPLEKKGELVQAHPDFQLVISYNPGYQSLMKDLKQSTKQRFGALDFNYPDHEIEAEIVSHETGVNKEVADKLVSIAERARNLKGHGLDEGISTRMLVYAGSLINKGVEAKAACRVTLVRPITDDPDMRDALDAAVTTYF
notes: MoxR-type AAA+ protein CbbQ1 of Acidithiobacillus ferrooxidans ATCC 23270, locus AFE_3053; native N terminus after cleavage of His6-ubiquitin; six copies in the Q1O1 complex; alone it eluted in the void volume (likely soluble aggregates); also called AfQ1; AfCbbQ1; source: E. coli, co-expressed with CbbO1, co-purified (Ni-NTA, ubiquitin cleaved, MonoQ, Superdex 200); not shown: His6, N-terminal, …
B3: Rhodobacter sphaeroides form I rubisco large subunit (natural protein, UniProt P27997 1-486, looked up)
chain: MDTKTTEIKGKERYKAGVLKYAQMGYWDGDYVPKDTDVLALFRITPQEGVDPVEAAAAVAGESSTATWTVVWTDRLTACDSYRAKAYRVEPVPGTPGQYFCYVAYDLILFEEGSIANLTASIIGNVFSFKPLKAARLEDMRFPVAYVKTYKGPPTGIVGERERLDKFGKPLLGATTKPKLGLSGKNYGRVVYEGLKGGLDFMKDDENINSQPFMHWRDRFLYVMEAVNLASAQTGEVKGHYLNITAGTMEEMYRRAEFAKSLGSVIVMVDLIIGYTAIQSISEWCRQNDMILHMHRAGHGTYTRQKNHGISFRVIAKWLRLAGVDHLHCGTAVGKLEGDPLTVQGYYNVCREPFNTVDLPRGIFFEQDWADLRKVMPVASGGIHAGQMHQLLSLFGDDVVLQFGGGTIGHPMGIQAGATANRVALEAMVLARNEGRNIDVEGPEILRAAAKWCKPLEAALDTWGNITFNYTSTDTSDFVPTASVAM
notes: form I rubisco large subunit of Rhodobacter sphaeroides; also called large subunit of RsLS

What was measured:
[1] = molecular target: the molecule itself; test: SEC + other: glycerol gradient sedimentation; combined Stokes radius/sedimentation analysis: Stokes radius from gel filtration, Svedberg coefficient from 5–30% glycerol gradients in buffer A (1 mg/ml, 35,000 r.p.m., 16 h, 4 °C); M=4,205 (SRs)
[2] = molecular target: B2; test: quantitative densitometry of SDS-PAGE; Coomassie-stained SDS–PAGE of the purified complexes (4 µg per lane), assuming equal binding of the dye; details: both partners purified
[3] = molecular target: B2; test: SEC + other: glycerol gradient sedimentation; combined Stokes radius/sedimentation analysis: Stokes radius from gel filtration, Svedberg coefficient from 5–30% glycerol gradients in buffer A (1 mg/ml, 35,000 r.p.m., 16 h, 4 °C); M=4,205 (SRs); details: both partners purified
[4] = molecular target: B1; test: quantitative densitometry of SDS-PAGE; Coomassie-stained SDS–PAGE of the purified complexes (4 µg per lane), assuming equal binding of the dye; details: both partners purified
[5] = molecular target: B1; test: SEC + other: glycerol gradient sedimentation; combined Stokes radius/sedimentation analysis: Stokes radius from gel filtration, Svedberg coefficient from 5–30% glycerol gradients in buffer A (1 mg/ml, 35,000 r.p.m., 16 h, 4 °C); M=4,205 (SRs); details: both partners purified
[6] = molecular target: B3; test: as above; details: both partners purified

| Binder | stoichiometry N [1] | other results |
| --- | --- | --- |
| Rhodopseudomonas palustris form II rubisco (enzyme, UniProt Q6N0W9 1-461, looked up, form II rubisco (CbbM) of Rhodopseudomonas palustris; gene synthesized by Genscript, cloned in pHue; also called RpM; source: E. coli BL21 (DE3), purified (Ni-NTA, ubiquitin cleaved, Mono Q, Superdex 200); not shown: His6, N-terminal, cleaved; ubiquitin, N-terminal, cleaved) MDQSNRYANLNLKESELIAGGRHVLCAYIMKPKAGFGNFIQTAAHFAAESSTGTNVEVSTTDDFTRGVDALVYEVDEANSLMKIAYPIELFDRNVIDGRAMIASFLTLTIGNNQGMGDVEYAKMYDFYVPPAYLKLFDGPSTTIKDLWRVLGRPVINGGFIVGTIIKPKLGLRPQPFANACYDFWLGGDFIKNDEPQGNQVFAPFKDTVRAVADAMRRAQDKTGEAKLFSFNITADDHYEMLARGEFILETFADNADHIAFLVDGYVAGPAAVTTARRAFPKQYLHYHRAGHGAVTSPQSKRGYTAFVLSKMARLQGASGIHTGTMGFGKMEGEAADRAIAYMITEDAADGPYFHQEWLGMNPTTPIISGGMNALRMPGFFDNLGHSNLIMTAGGGAFGHVDGGAAGAKSLRQAEQCWKQGADPVEFAKDHREFARAFESFPQDADKLYPNWRAKLKPQAA | 6 subunits in the oligomer |  |
| B1 | 6 subunits in the oligomer |  |
| Acidithiobacillus ferrooxidans CbbO1 (natural protein, UniProt B7JA27 1-772, looked up, VWA-domain protein CbbO1 of Acidithiobacillus ferrooxidans ATCC 23270, locus AFE_3054; insoluble unless co-expressed with CbbQ1; also called AfCbbO1; source: E. coli, co-expressed with CbbQ1, co-purified (Ni-NTA, ubiquitin cleaved, MonoQ, Superdex 200); not shown: His6, N-terminal, cleaved; ubiquitin, N-terminal, cleaved) MKHLEDYAELLQAFGEGSQAILQSKWQEATRVFSPSGLDQYLDGAMGLRSLGKGDGLVSSYLDAAPHIAREVGEDAVWELVGAVMKMASKTSGAVLEAVVSTSPTAANRLADPELFKSYLGMLDRLLAQVPRALRPMLENIDQLFGYLTLGGLRRWALWGAHAHRTDFEAQIAYFSLKSPEALAMLQQERKGTLFVDIQRRLRMYLRALWGRDFFLRPTSGDFEDREGYRPYIEGIFIHLPDAYDDWEDIDGMTRYRAVAVHAAAHVAYMRKAISAEALTPEQMAVIGLFEDARVEALAMRAFPGIRAIWLPFHTAVAGPVASMGHLFSRLARAIIDPDYVDDNAWVQEGRRVFMEAEARWDDPQLSWDLGVHLADRLRNQRVSYHARTDIPDILYRDDNRYIWEFEEIDWEHETTILPGAQVRKYVNVMEMVNEVDTELAGDDAQEVWVLQSELFPYEDMGLSYNQMEGKEPVSDPFHYPEWDYQIQASRPLWATVLERRPRLGDARVVREVLEKYKPVSSRLRYLIEALQPQGVQRLRKQEDGDEIDVEAAVRALVDIRMGLAPDTRIHMRSLRKVRDLGVLVLMDLSESTNDKVRGSEDSILQLTRDATSLLADAMNRIGDPFAIHGFHSDGRHDVAYYRFKDFDEAYSEEAMGRIAGMTGKFSTRMGAALRHAGHHLRHQRQSRKLLLVITDGEPADIDVRDPQYLRHDARRAVEDLGRDGVITYCLSLDPHADEYVSRIFGARNYQVIDHVERLPERLPILYAGLTR |  | stoichiometry N [2]: 1 CbbO subunit per 6 CbbQ subunits; stoichiometry N [3]: 1 CbbO subunit per CbbQ hexamer |
| B2 | 6 CbbQ subunits in the complex |  |
| Acidithiobacillus ferrooxidans CbbO2 (natural protein, UniProt B7J5E5 1-759, looked up, VWA-domain protein CbbO2 of Acidithiobacillus ferrooxidans ATCC 23270, locus AFE_2157; insoluble unless co-expressed with CbbQ2; also called AfCbbO2; source: E. coli, co-expressed with CbbQ2, co-purified (Ni-NTA, ubiquitin cleaved, MonoQ, Superdex 200; 5 mM MgCl2 and 5% glycerol in buffers); not shown: His6, N-terminal, cleaved; ubiquitin, N-terminal, cleaved) MTDHPRDASLPSRLAAYRKQLDCRFPRVGEVFSDCIAKASARLGPAGVSAYVDAARALCKLGRGEEPVLIFLEEWPDVGAALGDGTLEMVMQMVQFMQRTPNGNAIGGFLQSLAPVSRALLSREQLGHYLNTLRDMMERTTGSIHGHHQTHPSPGLPELLRQAPTLLQSLTVDGLRNWVDYGVRNYLHHPERQKDFFSLQSADSRAVLQRERHGTLLADVERKLDLYLRGLWQDSEVLVPYSTAFATLRTPQPYYDALGMRLPDVLDDLPGIGALDHYRAILAHMVGHRRWSTPQIADNWSPFQRLAVEFFEDARIDTLLIRTYPGLRTLFLALHPKPGEDACDPETTSCLRHRLAMLSRALLDPEHGYRNPVLHDFVDRFHGELAGGNADTATMARLALDYVTTTRRQSDQFAKVHFADTEISYRDDNRGLWRFIESGDEEEAFDAEQRKAPDLETQGLPPRHYPEWDYQSQSYRPDWVSLYEGLHASAPAATIDQLLLKHAALAKHLKRLLDLLKPQDKVRIRYQEEGSELDLDVALRSWIDFKSGSTPDPRINMSHRTAGRDIAVTLLLDLSESLNESVKTGGGDGQTVLQLSQEAVSLLAWSIEQLGDPLAIAGFNSNTRHEVRYQHIKGFSEPWGDVVKGRLAALQAGYSTRMGAAMRHAGHYLATRKADKKLMLVLTDGRPSDVDVQDDRLLIEDARQAVNELDRDGIFTYCISLDPHADAYVADIFGRQYTVIDHIARLPEKLPELFIALTR |  | stoichiometry N [4]: 1 CbbO subunit per 6 CbbQ subunits; stoichiometry N [5]: 1 CbbO subunit per CbbQ hexamer |
| Rhodobacter sphaeroides form I rubisco small subunit (natural protein, UniProt P27998 1-129, looked up, form I rubisco small subunit of Rhodobacter sphaeroides; also called small subunit of RsLS) MRITQGCFSFLPDLTDEQISAQVDYCLGRGWAVSLEHTDDPHPRNTYWEMWGMPMFDLRDPKGVMIELDECRKAWPGRYIRINAFDSTRGFETVTMSFIVNRPEVEPSLRMERTEVDGRSIRYTHSIVR |  | binding result [6]: binds |
| B3 | 8 large subunits in the complex |  |
| Acidithiobacillus ferrooxidans form I rubisco large subunit (natural protein, UniProt B7JA24 1-473, looked up, form I rubisco large subunit (CbbL) of Acidithiobacillus ferrooxidans ATCC 23270, locus AFE_3051; gene amplified from genomic DNA; cbbL and cbbS were amplified together and cloned between NdeI and HindIII of pET30b; no tag is mentioned; also called AfL; CbbL; source: E. coli BL21, co-expressed with the small subunit from pET30bAfcbbLS, purified (Source30Q, Superdex 200)) MAVKTYNAGVKDYRNTYWEPDYSVKDTDILAVFKITPQAGVDREEAAAAVAAESSTGTWTTVWTDLLTDLDYYKGRAYRIEDVPGDDTCFYAFIAYPIDLFEEGSVVNVFTSLVGNVFGFKAVRALRLEDVRFPIAYVKTCGGPPHGIQVERDIMNKYGRPLLGCTIKPKLGLSAKNYGRACYEGLRGGLDFTKDDENVNSQPFMRWRQRFDFVMEAIQKAEAETGERKGHYLNVTAPTPEEMYKRAEYAKEIGAPIIMHDYITGGFCANTGLANWCRDNGMLLHIHRAMHAVLDRNPHHGIHFRVLTKILRLSGGDHLHSGTVVGKLEGDREATLGWIDIMRDRFIKEDRSRGIFFDQDWGSMPGVMPVASGGIHVWHMPALVTIFGDDSVLQFGGGTLGHPWGNAAGAAANRVALEACVEARNRGVAIEKEGKAVLTEAAKHSPELKIAMETWKEIKFEFDTVDKLDVAHK | 8 large subunits in the complex |  |
| Acidithiobacillus ferrooxidans form II rubisco (enzyme, UniProt B7J5E3 1-459, looked up, form II rubisco (CbbM) of Acidithiobacillus ferrooxidans ATCC 23270, locus AFE_2155; native N terminus after cleavage of His6-ubiquitin; used as ECM, ER and ECMC complexes in the enzymatic assays; also called AfM; CbbM; source: E. coli BL21 (DE3), purified (Ni-NTA, ubiquitin cleaved, Mono Q, Superdex 200); not shown: His6, N-terminal, cleaved; ubiquitin, N-terminal, cleaved) MDQSNRYADLSLKEEDLISGGKHILVAYKMKPKAGHGYLEAAAHFAAESSTGTNVEVSTTDDFTKGVDALVYHIDEATEDMRIAFPLELFDRNVTDGRMMIVSFLTLVIGNNQGMGDIEHGQMIDFFMPPRAIQLFDGPAKDISDLWRILGRPIKDGGYIAGTIIKPKLGLRPEPFAAAAYQFWLGGDFIKNDEPQGNQVFAPVKKTIPLVYDAMKRAMDETGEAKLFSMNITADDHYEMCARADFALETFGPDADKLAFLVDGFVGGPGMITTARRQYAGQYLHYHRAGHGMITSPSAKRGYTAFVLAKMSRLQGASGIHVGTMGYGKMEGGADDRNIAYMIERDSCDGPVYHQEWYGMKPTTPIISGGMNALRLPGFFENLGHGNVINTAGGGSYGHIDSPAAGAVSLRQAYECWKAGADPIEYAREHKEFARAFESFPGDADKLYPGWREKLGVHR | 6 subunits in the oligomer |  |
